Substrate in data set [1]: COc1cc(/C=C/CO)cc(OC)c1O
As to the kind of experiment: Enzyme kinetics of MOMT9-1 (4-O-methylation of phenolic substrates). The format is biochemical, C. breweri. The following applies: other: MOMT9-1. An excerpt:
(§1) Further shaping of the substrate binding pocket targeting residues Thr-319, Ile-165, Leu-133 and Leu-143 by Iterative Saturation Mutagenesis using MOMT8-1 as the starting point lead to the generation of MOMT9-1 which carried all of the substitutions of MOMT8-1 and an additional substitution of Met for Thr at position 319. Thus MOMT9-1 is a specialized (iso)eugenol-4-O-methyltransferase (s-IEMT) having 6-fold higher specific activity with coniferyl alcohol as the substrate compared to its specific activity with sinapyl alcohol as substrate. The s-IEMT designated MOMT9-1 comprises a specialized (iso)eugenol-4-O-methyltransferase having the following substitutions: T133L/E165I/F175I/F166W/H169F/M26H/S30R/V33S/T319M where amine acid residue numbers correspond to those of SEQ ID NO. 1.
(§2) Each of the s-IEMTs was isolated following expression in bacterial cells of nucleic acid sequences encoding the enzymes. The isolated enzymes were analyzed for their substrate versatility, specificity and enzyme kinetics on various phenolic substrates.

Substrate in data set [2]: COc1cc(/C=C/CO)ccc1O
The description is as above. The format is biochemical, C. breweri. The following applies: other: MOMT9-1.
Excerpt: as §1, §2

A short description of data set [3]: Specific activity with ferulic acid as the substrate. The format is biochemical. As for the experimental part: as §2
Data set [4] in a line: Specific activity with 5-hydroxyl coniferyl alcohol (formation of iso-sinapyl alcohol). The format is biochemical. The following applies: substrate 5-hydroxyl coniferyl alcohol; product iso-sinapyl alcohol. The protocol: as §2
Iso-synapyl alcohol is thought to have the potential to be incorporated into lignin. These two additional specialized IEMT's having eight amino acid substitutions are designated as follows and have the indicated substitutions: […]

Data set [5] can be described thus: Enzyme kinetics, coniferyl alcohol as substrate. The following applies: coniferyl alcohol versus sinapyl alcohol. The format is biochemical. As for the experimental part: as §2
Substrate in data set [6]: COc1cc(/C=C/CO)cc(O)c1O
The data set can be described thus: Enzyme kinetics of MOMT-5 (4-O-methylation of phenolic substrates). The format is biochemical, C. breweri. The following applies: other: MOMT-5.
Excerpt: (§3) Starting with a modified (iso)eugenol-4-O-methyltransferase (m-IEMT) previously designated MOMT-5 having the five substitutions Leu for Thr at 133, Ile for Glu at 165, Ile for Phe at 175, Trp for Phe at 166 and Phe for His at 169 (T133L/E165I/F175I/F166W/H169F), where the amino acid residue numbers correspond to those for the C. breweri (iso)eugenol-4-O-methyltransferase protein (SEQ ID NO. 1), the synergistic effects of simultaneously modifying adjacent amino acids located in the substrate binding pocket have been explored. Specialized (iso)eugenol-4-O-methyltransferases (s-IEMTs) were generated that have relatively little activity on sinapyl alcohol compared to activity on p-coniferyl alcohol. Some species of s-IEMT have enhanced activity toward 4-O-methylation of ferulic acid. Additional species of s-IEMT have the capacity to generate iso-sinapyl alcohol. These s-IEMTs are useful for altering lignin precursors in plants, altering lignin composition in plants, and for producing potentially useful chemicals and chemical feedstock in plants as well as in different heterologous expression systems. […]
as §2
(§4) The specific activity of the various m-IEMT (MOMT-5) and s-IEMTs (MOMT8-2 and MOMT8-3) are shown in Table 4 and enzyme kinetic analysis is shown in Table 5.

Substrate in data set [7]: COc1cc(/C=C/CO)cc(OC)c1O
Described as above. The format is biochemical, C. breweri. Particulars: other: MOMT-5.
Excerpt: as §3, §2, §4

Substrate in data set [8]: COc1cc(/C=C/CO)ccc1O
The description is as above. The format is biochemical, C. breweri. The following applies: other: MOMT-5.
Excerpt: as §3, §2, §4

Substrate in data set [9]: COc1cc(/C=C/CO)cc(O)c1O
As to the kind of experiment: Enzyme kinetics of MOMT8-3 (4-O-methylation of phenolic substrates). The format is biochemical, C. breweri. The following applies: other: MOMT8-3. As for the experimental part:
as §2
(§5) Iso-synapyl alcohol is thought to have the potential to be incorporated into lignin. These two additional specialized IEMT's having eight amino acid substitutions are designated as follows and have the indicated substitutions:
as §4

Substrate in data set [10]: COc1cc(/C=C/CO)cc(OC)c1O
The description is as above. The format is biochemical, C. breweri. The following applies: other: MOMT8-3. The protocol: as §2, §5, §4

Substrate in data set [11]: COc1cc(/C=C/CO)ccc1O
The data set is described as above. The format is biochemical, C. breweri. Particulars: other: MOMT8-3. As for the experimental part: as §2, §5, §4

Substrate in data set [12]: COc1cc(/C=C/CO)cc(O)c1O
As to the kind of experiment: Enzyme kinetics of MOMT8-2 (4-O-methylation of phenolic substrates). The format is biochemical, C. breweri. Particulars: other: MOMT8-2. As for the experimental part: as §2, §5, §4

Substrate in data set [13]: COc1cc(/C=C/CO)cc(OC)c1O
Described as above. The format is biochemical, C. breweri. The following applies: other: MOMT8-2. The protocol: as §2, §5, §4

Substrate in data set [14]: COc1cc(/C=C/CO)ccc1O
The description is as above. The following applies: other: MOMT8-2. The format is biochemical, C. breweri. The protocol: as §2, §5, §4

Substrate in data set [15]: COc1cc(/C=C/CO)cc(OC)c1O
As to the kind of experiment: Enzyme kinetics of MOMT8-1 (4-O-methylation of phenolic substrates). The format is biochemical, C. breweri. Particulars: other: MOMT8-1.
Excerpt: (§6) The first library examined amino acid substitutions at positions not previously explored, i.e., Met-26, Ser-30 and Val-33. The specialized (iso)eugenol-4-O-methyltransferase (s-IEMT) having all of the MOMT-5 substitutions and the additional substitution of His for Met at position 26, Arg for Ser at 30 and Ser for Val at 33 was designated MOMT8-1. The ratio of its activity for methylation of p-coniferyl alcohol versus methylation of p-sinapyl alcohol was 7.5:1 whereas the ratio of activity of MOMT-5 was about 4.2:1.
as §2

Substrate in data set [16]: COc1cc(/C=C/CO)ccc1O
The data set is described as above. The format is biochemical, C. breweri. Particulars: other: MOMT8-1.
Excerpt: as §6, §2

Residue numbers refer to the chain shown, from its start. Names and notes keep the numbering of the source.

The record followed here is patent US20140370568A1, “Specialized (iso)eugenol-4-O-methyltransferases (s-IEMTs) and Methods of Making and Using the Same” (Brookhaven Science Associates, LLC, priority 2013, published 2014).

B1: C. breweri (iso)eugenol-4-O-methyltransferase (SEQ ID NO. 1) variant MOMT9-1, T133L/E165I/F175I/F166W/H169F/M26H/S30R/V33S/T319M (Clarkia breweri; … (protein)
chain: STGNAEIQIIPTHSSDEEANLFAHQLARAASLPMALKAAIELDVLEIMAKSVPPSGYISPAEIAAQLPTTNPEAPVMLDRVLRLLASYSVVTYTLRELPSGKVERLYGLAPVCKFLTKNEDGVSLAPFLLLATDKVLLEPWFYLKDAILEGGIPFNKAYGMNIWDYFGTDHRINKVFNKGMSSNSTITMKKILEMYNGFEGLTTIVDVGGGTGAVASMIVAKYPSINAINFDLPHVIQDAPAFSGVEHLGGDMFDGVPKGDAIFIKWICHDWSDEHCLKLLKNCYAALPDHGKVIVAEYILPPSPDPSIATKVVIHMDALMLAYNPGGKERTEKEFQALAMASGFRGFKVASCAFNTYVMEFLKTA
For orientation: Km means the concentration of substrate that gives half-maximal velocity. By Vmax is commonly meant the rate approached at saturating substrate. As usually defined, the kcat is the maximal rate divided by the concentration of active sites. Consider B1, for which, in data set [1], the Km was determined as 109.5 ± 4.0 µM, the Vmax amounted to 24.2 ± 0.3 nmol/mg/min and the kcat is 0.017 ± 0.0002 s⁻¹. Besides, in data set [2], the Km was found to be 16.1 ± 1.4 µM, the Vmax turned out to be 88.4 ± 1.7 nmol/mg/min and the kcat stood at 0.063 ± 0.001 s⁻¹.

B2: MOMT-5: previously generated modified C. breweri (iso)eugenol-4-O-methyltransferase (m-IEMT), substitutions T133L/E165I/F175I/F166W/H169F (protein, UniProt O04385 3-368, looked up, variant T133L E165I F175I F166W H169F)
(Iso)eugenol …: B1 chain with H24M, R28S, S31V, M317T
For the molecule B2, the “Specific activity with ferulic acid as the substrate” value in data set [3] is 7.84 nmol/min/mg. Moreover, the “Specific activity with 5-hydroxyl coniferyl alcohol, iso-sinapyl alcohol” value in data set [4] came to 43.5 ± 4.0 nmol/mg/min. In addition, in data set [5], the “catalytic efficiency (kcat/Km) for coniferyl alcohol higher than for sinapyl alcohol” value was “less than 3 fold”.

B3: C. breweri (iso)eugenol-4-O-methyltransferase (SEQ ID NO. 1) variant MOMT-5, T133L/E165I/F175I/F166W/H169F (Clarkia breweri; E165I/F166W/F175I/H169F/T133L) (protein)
chain: B1 chain with H24M, R28S, S31V, M317T
One may read the kcat/Km as the second-order rate constant that governs catalysis at low substrate concentration. As to B3, in data set [6], the Km was 105.0 ± 11.2 µM, the Vmax came to 0.101 µmol/min/mg, the kcat came out at 0.072 ± 0.003 s⁻¹ and the specificity constant (kcat/Km) was 686 M⁻¹ s⁻¹. Further, in [7], the Km stood at 14.7 ± 2.3 µM, the maximal velocity (Vmax) turned out to be 46.6 ± 1.5 nmol/mg/min and the kcat came to 0.033 ± 0.001 s⁻¹. Besides, in data set [8], the Km is 11.4 ± 1.6 µM, the Vmax turned out to be 96.1 ± 3.8 nmol/mg/min and the kcat is 0.069 ± 0.009 s⁻¹.

B4: C. breweri (iso)eugenol-4-O-methyltransferase (SEQ ID NO. 1) variant MOMT8-3, T133L/E165I/F175I/F166W/H169F/M26S/S30F/V33G (Clarkia breweri; … (protein)
chain: B1 chain with H24S, R28F, S31G, M317T
Turning to B4, in data set [9], the Michaelis constant (Km) amounted to 65.4 ± 13.0 µM, the Vmax is 0.145 µmol/min/mg, the kcat was 0.104 ± 0.006 s⁻¹ and the kcat/Km was found to be 1590 M⁻¹ s⁻¹. In [10], the Michaelis-Menten constant (Km) was 35.9 ± 9.8 µM, the Vmax came to 0.0515 µmol/min/mg, the turnover number (kcat) is 0.036 ± 0.003 s⁻¹ and the kcat/Km was 1000 M⁻¹ s⁻¹. In [11], the Km was 23.3 ± 2.4 µM, the Vmax came out at 0.0735 µmol/min/mg, the kcat came to 0.053 ± 0.001 s⁻¹ and the kcat/Km worked out at 2270 M⁻¹ s⁻¹.

B5: C. breweri (iso)eugenol-4-O-methyltransferase (SEQ ID NO. 1) variant MOMT8-2, T133L/E165I/F175I/F166W/H169F/M26S/S30F/V33Y (Clarkia breweri; … (protein)
chain: B1 chain with H24S, R28F, S31Y, M317T
In the case of B5, in data set [12], the Km is 57.9 ± 13.0 µM, the Vmax came to 0.123 µmol/min/mg, the kcat came out at 0.088 ± 0.006 s⁻¹ and the kcat/Km was determined as 1520 M⁻¹ s⁻¹. Also, in data set [13], the Km was 35.2 ± 9.8 µM, the Vmax is 0.0379 µmol/min/mg, the kcat amounted to 0.027 ± 0.002 s⁻¹ and the kcat/Km came to 767 M⁻¹ s⁻¹. Further, in [14], the Km came out at 15.9 ± 1.7 µM, the Vmax was found to be 0.0322 µmol/min/mg, the kcat was 0.023 ± 0.001 s⁻¹ and the kcat/Km is 1450 M⁻¹ s⁻¹.

B6: C. breweri (iso)eugenol-4-O-methyltransferase (SEQ ID NO. 1) variant MOMT8-1, T133L/E165I/F175I/F166W/H169F/M26H/S30R/V33S (Clarkia breweri; … (protein)
chain: B1 chain with M317T
For B6, in data set [15], the Km stood at 26.3 ± 4.1 µM, the Vmax came out at 8.5 ± 0.3 nmol/mg/min and the kcat is 0.006 ± 0.000 s⁻¹. Besides, in data set [16], the Km was found to be 16.1 ± 1.3 µM, the Vmax came out at 68.1 ± 1.6 nmol/mg/min and the kcat was 0.049 ± 0.001 s⁻¹.
